The labels stand for the following.
B1: SAIT-ANG-2-AB-2-E6 (scFv form) (scFv, V domains shown)
VH: EVQLLESGGGLVQTGGSLRLSCAASGFTFSDYAMSWVRQAPGKGLEWVSAIYPDSGNKYYADSVKGRFTISRDNSKNTLYLQMNSLRAEDTAVYYCARHSSDPKVKSGYYDDGMDVWGQGTLVAVSS
VL: QSVLTQPPSASGTPGQRVTISCSGSSSNIGNNAVNWYQQLPGTAPKLLIYADSNRPSGVPDRFSGSKSGTSASLAISGLRSEDEADYYCGSWDYSLSGYVFGGGTKLTVLG
notes: scFv from a phage display library, partly purified from E. coli periplasm on Ni-NTA and detected with anti-HA
B2: SAIT-ANG-2-AB-7-C9 (scFv form) (scFv, V domains shown)
VH: EVQLLESGGGLVQPGGSLRLSCAASGFTFSNYAMSWVRQAPGKGLEWVSAISSGGGNIYYADSVKGRFTISRDNSKNTLYLQMNSLRAEDTAVYYCAKSGIQPSPPSMSSAYAMDVWGQGTLVTVSS
VL: B1 VL with A33D, N35Y, D52N, N54H, S91T
notes: scFv from a phage display library
B3: SAIT-ANG-2-AB-8-A5 (scFv form) (scFv, V domains shown)
VH: EVQLLESGGGLVQPGGSLRLSCAASGFTFSDYYMSWVRQAPGKGLEWVSGIYPSGGSTYYADSVKGRFTISRDNSKNTLYLQMNSLRAEDTAVYYCARDPSTLTYAGFDYWGQGTLVTVSS
VL: B1 VL with A33Y, N35T, N54H, G90A, S91T
notes: as for B2
B4: SAIT-ANG-2-AB-4-F5 (scFv form) (scFv, V domains shown)
VH: EVQLLESGGGLVQPGGSLRLSCAASGFTFSDYDMSWVRQAPGKGLEWVSSISHGDSNKYYADSVKGRFTISRDNSKNTLYLQMNSLRAEDTAVYYCAKSSGIQESPPTYYYYGMDVWGQGTLVTVSS
VL: B1 VL with N31S
notes: as for B2
B5: SAIT-ANG-2-AB-3-D3 (scFv form) (scFv, V domains shown)
VH: EVQLLESGGGLVQPGGSLRLSCAASGFTFSDYDMSWVRQAPGKGLEWVSGISSDDGNTYYADSVKGRFTISRDNSKNTLYLQMNSLRAEDTAVYYCARPTIDKYTLRGYYSYGMDVWGQGTLVTVSS
VL: B1 VL with S23T, N31S, A33Y, N35S, A51S, S53N, N54K, S91T, Y94D, S97N
notes: as for B2
B6: SAIT-ANG-2-AB-4-C11 (scFv form) (scFv, V domains shown)
VH: EVQLLESGGGLVQPGGSLRLSCAASGFTFSDYAMSWVRQAPGKGLEWVSSIYPDDGNTYYADSVKGRFTISRDNSKNTLYLQMNSLRAEDTAVYYCARHTSHHTSIDGYYYYGMDGWGQGTLVTVSS
VL: B1 VL with S23T, A33D, N35S, A51S, N54K
notes: as for B2
B7: SAIT-ANG-2-AB-4-F11 (scFv form) (scFv, V domains shown)
VH: EVQLLESGGGLVQTGGSLRLSCAASGFTFSDYAMSWVRQAPGKGLEWVSSIYPDDGNTYYADSVKGRFTISRDNSKNTLYLQMNSLRAEDTAVYYCAKHPVRLNLHPMYYYYGMDVWGQGTLVTVSS
VL: B1 VL with S23T, N35S, A51S, N54Q, G90A, S91T, G98A
notes: as for B2

Numbering of substitutions follows the chain as printed.

This note sets out measurements from US20150152192A1 (SAMSUNG ELECTRONICS, published 2015).

The first experiment has as its target T1, mouse Ang2 (Accession # NP-031452) (R&D Systems) (mouse, UniProt O35608 19-496, limits assumed).
T1 construct: Bought protein; also called mAng2
T1 sequence (looked up): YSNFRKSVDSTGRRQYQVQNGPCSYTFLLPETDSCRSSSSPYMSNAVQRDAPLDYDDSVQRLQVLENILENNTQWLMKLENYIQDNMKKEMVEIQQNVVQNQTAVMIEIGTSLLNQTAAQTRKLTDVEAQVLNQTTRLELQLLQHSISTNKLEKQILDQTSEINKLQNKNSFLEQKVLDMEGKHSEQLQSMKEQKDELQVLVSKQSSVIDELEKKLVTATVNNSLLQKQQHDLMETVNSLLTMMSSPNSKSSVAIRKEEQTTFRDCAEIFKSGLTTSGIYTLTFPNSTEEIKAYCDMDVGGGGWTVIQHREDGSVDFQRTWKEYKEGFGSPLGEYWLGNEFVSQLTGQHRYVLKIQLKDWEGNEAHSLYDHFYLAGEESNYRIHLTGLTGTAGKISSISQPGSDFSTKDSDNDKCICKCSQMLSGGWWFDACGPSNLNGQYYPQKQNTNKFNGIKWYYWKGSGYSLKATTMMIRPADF
Nature of the experiment: ELISA, antigen coated, scFv, anti-HA-HRP; 50% binding concentration (Kd). As to the method:
To measure binding of the antibodies prepared above with each antigen, ELISA was performed. A 96-well MaxiSorp™ flat-bottom plate (Nunc) was coated with 5˜20 μg/ml of human Ang2 and mouse Ang2 (Accession # NP_{—}031452) (both, R&D Systems). After that, the plate was washed five times with 0.05% (v/v) Tween-20-containing PBS and then blocked with 1% (v/v) BSA-containing PBS at a room temperature for 2 hours. The anti-Ang2 antibodies in their scFv forms prepared above were added to each well of the plate which was then allowed to react at a room temperature for 2 hours.
Thereafter, the plate was washed five times with 0.05% Tween-20-containing PBS and then, an HRP-conjugated anti-HA (HA-probe Antibody (F-7) HRP conjugated) antibody (Santacruz) diluted in 1% (v/v) BSA-containing PBS at 1:1,000 ratio (v/v) was added in the amount of 50 μl to each well to react at a room temperature for 1 hour, followed by washing five times with 0.1% (v/v) Tween-20-containing PBS. Finally, 100 μl of TMB substrate (cell signal) was added to each well of the plate to induce color development at a room temperature for 3 min and then, the reaction was ceased by the addition of 50 μl of 5N H₂SO₄ solution and OD450 values were measured on a plate reader (Molecular Devices).
Background: ELISA stands for enzyme-linked immunosorbent assay.
B1 yielded a dissociation constant (Kd) of 5.1 nM.
The same measure, in the same setting: next, B2: 8.7 nM; B3: 11.7 nM; B4: 23.8 nM.
On the same count and under the same terms, next, B5: 37.8 nM; B6: 28.6 nM; B7: 20.7 nM.

The next experiment has as its target T2, FLAG-Tagged hAng2 (human, UniProt O15123 19-496, limits assumed).
T2 construct: also called FLAG-Ang2; non-mutated Ang2
T2 sequence: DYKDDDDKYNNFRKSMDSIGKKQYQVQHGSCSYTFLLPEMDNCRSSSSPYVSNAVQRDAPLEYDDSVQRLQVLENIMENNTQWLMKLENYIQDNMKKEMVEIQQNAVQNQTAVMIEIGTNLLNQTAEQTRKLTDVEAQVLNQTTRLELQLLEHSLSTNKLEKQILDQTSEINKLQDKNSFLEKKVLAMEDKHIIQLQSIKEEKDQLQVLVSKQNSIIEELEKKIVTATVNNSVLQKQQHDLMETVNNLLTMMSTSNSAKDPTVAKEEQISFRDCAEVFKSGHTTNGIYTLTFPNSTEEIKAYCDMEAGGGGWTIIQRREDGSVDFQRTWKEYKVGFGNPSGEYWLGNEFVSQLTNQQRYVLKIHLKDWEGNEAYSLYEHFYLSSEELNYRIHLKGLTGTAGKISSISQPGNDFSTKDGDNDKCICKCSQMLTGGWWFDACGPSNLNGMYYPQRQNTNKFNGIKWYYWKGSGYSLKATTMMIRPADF
Description: competitive ELISA: hTie2-Fc coated, 400 ng/ml FLAG-hAng2 plus scFv, anti-FLAG-HRP. As to the method:
To verify molecular interaction of the bound assemblies, a competitive ELISA was performed. A 96-well MaxiSorp™ flat-bottom plate (Nunc) was coated with […] of hTie2-Fc (R&D Systems), which is a protein with the Fc of human IgG1 bound thereto. After that, the plate was washed five times with 0.05% (v/v) Tween-20-containing PBS (Phosphate Buffer Saline) and then blocked with 1% (v/v) BSA (Bovine serum albumin; Sigma)-containing PBS at a room temperature for 2 hours.
Thereafter, the plate was washed five times with 0.05% Tween-20-containing PBS and then, an HRP-conjugated anti-FLAG antibody (SIGMA) diluted in 1% (v/v) BSA-containing PBS at 1:5,000 ratio (v/v) was added in the amount of 100 μl (microliter) to each well to react at a room temperature for 1 hour, followed by washing five times with 0.1% (v/v) Tween-20-containing PBS. Finally, 100 μl (microliter) of TMB substrate (cell signal) was added to each well of the plate to induce color development at a room temperature for 3 min. Then, the reaction was ceased by the addition of 50 μl of 5N H₂SO₄ solution and OD450 values were measured on a plate reader (Molecular Devices).
Consider B1, for which the IC50 stood at 18.9 nM.
B2: the half-maximal inhibitory concentration (IC50) is 39.7 nM.
With B3, the 50% inhibitory concentration (IC50) amounted to 36.3 nM.
Still for that read-out and setting: next, B4: 10 nM; B5: 9.9 nM; B6: 6.5 nM.
The same measure, in the same setting: next, B7: 6.6 nM.

The next experiment deals with Ang2 with A449 mutated with alanine, tagged with FLAG (human) (UniProt O15123). Description: ELISA, scFv coated, 250 ng FLAG-tagged Ang2 mutant, anti-FLAG-HRP.
In turn, B1 yielded a Relative binding (%) with Mutant Ang2 compared to the binding with native Ang2 of 3.3%.
On the same count and under the same terms, next, B2: 14.5%; B4: 14%.
Same read-out and setting: next, B5: 101%; B6: 4.8%; B7: 16.7%.

As usually defined, the Kd is the concentration at which binding is half-saturated. Read a low Kd as higher affinity. What is called IC50 is the concentration that inhibits the measured activity by half.
